Consider 21 variants from the supplement of paper PMC6757056.

The labels stand for the following.
B1: library; a variant is named by its letters at N, in order (parent)
chain: GCUGUCACCGGUGUAUUACCCUAGUGGUCGACCGGUCUGAUGAGUCUNNNNNNAGACGAAACAGC

The variants in data set [1] derive from B1. Description: FACS-Seq fitted mean relative fluorescence mCherry/BFP without ligand (log10 relative fluorescence); ligand: hypoxanthine (xanthine aptamer); higher = higher reporter protein expression. To be noted: HEK293T, ligand present: no. In a few lines:
(§1)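 HEK293T libraries were lentivirally transduced with an mCherry reporter carrying the ribozyme switch and an EF1α-BFP marker, enriched, and incubated for 48 h with or without ligand before sorting into 6 bins by mCherry/BFP. Genomic DNA from each bin was PCR-amplified, barcoded and sequenced on MiSeq. Fluorescence is the fitted normal mean of the bin counts. The fit used log10(mCherry/BFP), and means were scaled to five spiked-in control ribozymes.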

The variants in data set [2] derive from B1. Description: normalized RNA/DNA level with ligand (relative to sTRSVctl = 100) (log10 (% of sTRSVctl)); ligand: hypoxanthine (xanthine aptamer); higher = less ribozyme self-cleavage, higher mRNA level. To be noted: ligand concentration (+) RNA-Seq: 5 mM, HEK293T, reporter: mCherry (pCS4076), ligand present: yes. The essentials: (§2)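 Total RNA, extracted with EDTA 72 h after HEK293T cells were transfected with 4 µg per 6-well well of reporter-linked ribozyme switch library plasmids, was reverse-transcribed, amplified, barcoded and sequenced. Ligand, if used, was added 1 h before transfection. RNA level was derived from RNA reads divided by DNA reads and normalized to a spiked-in non-cleaving sequence or to the top sequences. This was multiplied by 100 and log10-transformed, with the top set of 25 sequences and a ≥100 DNA read minimum.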

Variants of B1 are the subject of data set [3]. Put plainly: normalized RNA/DNA level without ligand (relative to sTRSVctl = 100) (log10 (% of sTRSVctl)); ligand: hypoxanthine (xanthine aptamer); higher = less ribozyme self-cleavage, higher mRNA level. To be noted: HEK293T, reporter: mCherry (pCS4076), ligand present: no. The essentials:
as §2

The variants in data set [4] derive from B1. Put plainly: FACS-Seq fitted mean relative fluorescence mCherry/BFP with ligand (log10 relative fluorescence); ligand: hypoxanthine (xanthine aptamer); ligand concentration (+) FACS-Seq: 5 mM; higher = higher reporter protein expression. The note with it: HEK293T, ligand present: yes. In a few lines:
as §1

± gives the standard deviation of the averaged measurements.

GCUGUCACCGGUGUAUUACCCUAGUGGUCGACCGGUCUGAUGAGUCUUUAGAAAGACGAAACAGC: the “FACS-Seq fitted mean (log10)” value is 0.092 ± 0.0099 in data set [1] and 0.285 ± 0.021 in data set [4]. Moreover, in data set [2], the “normalized RNA/DNA level with ligand (log10)” value was found to be 1.89 ± 0.043. Further, the “normalized RNA/DNA level without ligand (log10)” value in data set [3] amounted to 1.694 ± 0.0073.

For the variant GCUGUCACCGGUGUAUUACCCUAGUGGUCGACCGGUCUGAUGAGUCUAUAGACAGACGAAACAGC, the “FACS-Seq fitted mean (log10)” value was 0.72 ± 0.12 in data set [1] and 0.755 ± 0.051 in data set [4]. Besides, in data set [2], the “normalized RNA/DNA level with ligand (log10)” value was determined as 1.88 ± 0.035. Moreover, the “normalized RNA/DNA level without ligand (log10)” value in data set [3] turned out to be 1.8 ± 0.018.

For GCUGUCACCGGUGUAUUACCCUAGUGGUCGACCGGUCUGAUGAGUCUAUAGAAAGACGAAACAGC, the figures for the “FACS-Seq fitted mean (log10)” value in data set [1] and in data set [4] were 0.429 ± 0.005 and 0.6216 ± 0.0039, respectively. In data set [2], the “normalized RNA/DNA level with ligand (log10)” value was 1.87 ± 0.089. The “normalized RNA/DNA level without ligand (log10)” value in data set [3] was determined as 1.705 ± 0.0096.

As for GCUGUCACCGGUGUAUUACCCUAGUGGUCGACCGGUCUGAUGAGUCUAUACCGAGACGAAACAGC, the “FACS-Seq fitted mean (log10)” value in data set [1] stood at 0.00532 ± 0.0097; in data set [4], 0.282 ± 0.082. Besides, the “normalized RNA/DNA level with ligand (log10)” value in data set [2] worked out at 1.84 ± 0.095. Further, in data set [3], the “normalized RNA/DNA level without ligand (log10)” value was determined as 1.47 ± 0.035.

Take GCUGUCACCGGUGUAUUACCCUAGUGGUCGACCGGUCUGAUGAGUCUUUACGUAGACGAAACAGC: the “FACS-Seq fitted mean (log10)” value in data set [1] worked out at 0.582 ± 0.017; in data set [4], 0.566 ± 0.013. Moreover, the “normalized RNA/DNA level with ligand (log10)” value in data set [2] is 1.95 ± 0.075. In addition, the “normalized RNA/DNA level without ligand (log10)” value in data set [3] amounted to 1.83 ± 0.025.

GCUGUCACCGGUGUAUUACCCUAGUGGUCGACCGGUCUGAUGAGUCUUUACUGAGACGAAACAGC: the entries for the “FACS-Seq fitted mean (log10)” value in data set [1] and in data set [4] were 0.491 ± 0.085 and 0.536 ± 0.13, respectively. Besides, the “normalized RNA/DNA level with ligand (log10)” value in data set [2] is 1.93 ± 0.039. Besides, the “normalized RNA/DNA level without ligand (log10)” value in data set [3] came to 1.67 ± 0.034.

Take GCUGUCACCGGUGUAUUACCCUAGUGGUCGACCGGUCUGAUGAGUCUCUAGACAGACGAAACAGC: the figures for the “FACS-Seq fitted mean (log10)” value in data set [1] and in data set [4] were 0.273 ± 0.014 and 0.149 ± 0.099, respectively. Besides, the “normalized RNA/DNA level with ligand (log10)” value in data set [2] amounted to 1.901 ± 0.0041. For the same variant, the “normalized RNA/DNA level without ligand (log10)” value in data set [3] amounted to 1.832 ± 0.011.

For GCUGUCACCGGUGUAUUACCCUAGUGGUCGACCGGUCUGAUGAGUCUCUAGAUAGACGAAACAGC, the “FACS-Seq fitted mean (log10)” value is -0.176 ± 0.0088 in data set [1] and 0.0723 ± 0.049 in data set [4]. Further, in data set [2], the “normalized RNA/DNA level with ligand (log10)” value stood at 1.96 ± 0.051. Besides, in data set [3], the “normalized RNA/DNA level without ligand (log10)” value stood at 1.79 ± 0.056.

As to GCUGUCACCGGUGUAUUACCCUAGUGGUCGACCGGUCUGAUGAGUCUCUAGAAAGACGAAACAGC, the “FACS-Seq fitted mean (log10)” value in data set [1] was found to be 0.259 ± 0.2; in data set [4] it was 0.359 ± 0.059. Further, the “normalized RNA/DNA level with ligand (log10)” value in data set [2] stood at 1.92 ± 0.032. The “normalized RNA/DNA level without ligand (log10)” value in data set [3] was determined as 1.79 ± 0.042.

With GCUGUCACCGGUGUAUUACCCUAGUGGUCGACCGGUCUGAUGAGUCUGUAGAGAGACGAAACAGC, the entries for the “FACS-Seq fitted mean (log10)” value in data set [1] and in data set [4] were 0.148 ± 0.015 and 0.627 ± 0.068, respectively. For the same variant, the “normalized RNA/DNA level with ligand (log10)” value in data set [2] is 1.83 ± 0.073. Also, the “normalized RNA/DNA level without ligand (log10)” value in data set [3] turned out to be 1.31 ± 0.16.

Consider GCUGUCACCGGUGUAUUACCCUAGUGGUCGACCGGUCUGAUGAGUCUGUAGAAAGACGAAACAGC, for which the figures for the “FACS-Seq fitted mean (log10)” value in data set [1] and in data set [4] were 0.2674 ± 0.0022 and 0.342 ± 0.023, respectively. Also, in data set [2], the “normalized RNA/DNA level with ligand (log10)” value is 1.89 ± 0.03. The “normalized RNA/DNA level without ligand (log10)” value in data set [3] came to 1.723 ± 0.0046.

For the variant GCUGUCACCGGUGUAUUACCCUAGUGGUCGACCGGUCUGAUGAGUCUGUAGCCAGACGAAACAGC, the figures for the “FACS-Seq fitted mean (log10)” value in data set [1] and in data set [4] were 0.609 ± 0.017 and 0.678 ± 0.059, respectively. The “normalized RNA/DNA level with ligand (log10)” value in data set [2] is 1.982 ± 0.014. The “normalized RNA/DNA level without ligand (log10)” value in data set [3] turned out to be 1.83 ± 0.02.

As to GCUGUCACCGGUGUAUUACCCUAGUGGUCGACCGGUCUGAUGAGUCUAUACGGAGACGAAACAGC, the “FACS-Seq fitted mean (log10)” value in data set [1] was -0.0504 ± 0.059; in data set [4], 0.547 ± 0.084. For the same variant, the “normalized RNA/DNA level with ligand (log10)” value in data set [2] was determined as 1.785 ± 0.012. Also, in data set [3], the “normalized RNA/DNA level without ligand (log10)” value is 1.27 ± 0.082.

With GCUGUCACCGGUGUAUUACCCUAGUGGUCGACCGGUCUGAUGAGUCUAUACGCAGACGAAACAGC, the “FACS-Seq fitted mean (log10)” value in data set [1] was determined as 0.365 ± 0.04; in data set [4] it was 0.5194 ± 0.0036. The “normalized RNA/DNA level with ligand (log10)” value in data set [2] was found to be 1.91 ± 0.056. Moreover, the “normalized RNA/DNA level without ligand (log10)” value in data set [3] came out at 1.72 ± 0.042.

For the variant GCUGUCACCGGUGUAUUACCCUAGUGGUCGACCGGUCUGAUGAGUCUGUACGGAGACGAAACAGC, the entries for the “FACS-Seq fitted mean (log10)” value in data set [1] and in data set [4] were -0.0891 ± 0.011 and 0.337 ± 0.062, respectively. In addition, the “normalized RNA/DNA level with ligand (log10)” value in data set [2] came out at 1.893 ± 0.016. Besides, in data set [3], the “normalized RNA/DNA level without ligand (log10)” value came out at 1.4 ± 0.048.

Consider GCUGUCACCGGUGUAUUACCCUAGUGGUCGACCGGUCUGAUGAGUCUGUACGUAGACGAAACAGC, for which the figures for the “FACS-Seq fitted mean (log10)” value in data set [1] and in data set [4] were 0.418 ± 0.03 and 0.626 ± 0.09, respectively. The “normalized RNA/DNA level with ligand (log10)” value in data set [2] turned out to be 1.8918 ± 0.0012. Further, in data set [3], the “normalized RNA/DNA level without ligand (log10)” value came to 1.78 ± 0.067.

Consider GCUGUCACCGGUGUAUUACCCUAGUGGUCGACCGGUCUGAUGAGUCUAUACUAAGACGAAACAGC, for which the results for the “FACS-Seq fitted mean (log10)” value in data set [1] and in data set [4] were 0.515 ± 0.014 and 0.512 ± 0.018, respectively. In data set [2], the “normalized RNA/DNA level with ligand (log10)” value was 1.9061 ± 0.00059. Further, the “normalized RNA/DNA level without ligand (log10)” value in data set [3] is 1.774 ± 0.001.

On to GCUGUCACCGGUGUAUUACCCUAGUGGUCGACCGGUCUGAUGAGUCUAUACUGAGACGAAACAGC, for which the “FACS-Seq fitted mean (log10)” value in data set [1] was 0.294 ± 0.022; in data set [4] it was 0.634 ± 0.025. Further, the “normalized RNA/DNA level with ligand (log10)” value in data set [2] was found to be 1.86 ± 0.077. Also, the “normalized RNA/DNA level without ligand (log10)” value in data set [3] turned out to be 1.43 ± 0.088.

Turning to GCUGUCACCGGUGUAUUACCCUAGUGGUCGACCGGUCUGAUGAGUCUAUAGCAAGACGAAACAGC, the “FACS-Seq fitted mean (log10)” value in data set [1] came out at 0.241 ± 0.047; in data set [4], 0.455 ± 0.093. In addition, the “normalized RNA/DNA level with ligand (log10)” value in data set [2] is 1.88 ± 0.033. Moreover, in data set [3], the “normalized RNA/DNA level without ligand (log10)” value amounted to 1.78 ± 0.023.

In the case of GCUGUCACCGGUGUAUUACCCUAGUGGUCGACCGGUCUGAUGAGUCUCUAGCAAGACGAAACAGC, the “FACS-Seq fitted mean (log10)” value in data set [1] is 0.139 ± 0.058; in data set [4], 0.177 ± 0.018. The “normalized RNA/DNA level with ligand (log10)” value in data set [2] worked out at 1.93 ± 0.038. Further, the “normalized RNA/DNA level without ligand (log10)” value in data set [3] was found to be 1.83 ± 0.04.

Turning to GCUGUCACCGGUGUAUUACCCUAGUGGUCGACCGGUCUGAUGAGUCUCUACUAAGACGAAACAGC, the “FACS-Seq fitted mean (log10)” value came out at 0.522 ± 0.16 in data set [1] and 0.51 ± 0.059 in data set [4]. Also, in data set [2], the “normalized RNA/DNA level with ligand (log10)” value came to 1.9 ± 0.046. Besides, the “normalized RNA/DNA level without ligand (log10)” value in data set [3] was 1.78 ± 0.02.
